In publication doi:10.1101/2023.08.01.551421 (bioRxiv, 2023):
Where a chain is given by its changes, count along the chain named. Names may count otherwise.

B1: GBP1 Δ207-216 variant, farnesylated (natural protein)
chain: MASEIHMTGPMCLIENTNGRLMANPEALKILSAITQPMVVVAIVGLYRTGKSYLMNKLAGKKKGFSLGSTVQSHTKGIWMWCVPHPKKPGHILVLLDTEGLGDVEKGDNQNDSWIFALAVLLSSTFVYNSIGTINQQAMDQLYYVTELTHRIRSKSSPDENENEVEDSADFVSFFPDFVWTLRDFSLDLEADGQPLTPDEYLTYSLGGGSETFNLPRLCIRKFFPKKKCFVFDRPVHRRKLAQLEKLQDEELDPEFVQQVADFCSYIFSNSKTKTLSGGIQVNGPRLESLVLTYVNAISSGDLPCMENAVLALAQIENSAAVQKAIAHYEQQMGQKVQLPTETLQELLDLHRDSEREAIEVFIRSSFKDVDHLFQKELAAQLEKKRDDFCKQNQEASSDRCSALLQVIFSPLEEEVKAGIYSKPGGYRLFVQKLQDLKKKYYEEPRKGIQAEEILQTYLKSKESMTDAILQTDQTLTEKEKEIEVERVKAESAQASAKMLQEMQRKNEQMMEQKERSYQEHLKQLTEKMENDRVQLLKEQERTLALKLQEQEQLLKEGFQKESRIMKNEIQDLQTKMRRRKACTIS
modifications: farnesyl moiety, C-terminal (CaaX box motif)
B2: GBP1 Δ207-213 variant, farnesylated (natural protein)
chain: MASEIHMTGPMCLIENTNGRLMANPEALKILSAITQPMVVVAIVGLYRTGKSYLMNKLAGKKKGFSLGSTVQSHTKGIWMWCVPHPKKPGHILVLLDTEGLGDVEKGDNQNDSWIFALAVLLSSTFVYNSIGTINQQAMDQLYYVTELTHRIRSKSSPDENENEVEDSADFVSFFPDFVWTLRDFSLDLEADGQPLTPDEYLTYSLGGGSGGGSQKDETFNLPRLCIRKFFPKKKCFVFDRPVHRRKLAQLEKLQDEELDPEFVQQVADFCSYIFSNSKTKTLSGGIQVNGPRLESLVLTYVNAISSGDLPCMENAVLALAQIENSAAVQKAIAHYEQQMGQKVQLPTETLQELLDLHRDSEREAIEVFIRSSFKDVDHLFQKELAAQLEKKRDDFCKQNQEASSDRCSALLQVIFSPLEEEVKAGIYSKPGGYRLFVQKLQDLKKKYYEEPRKGIQAEEILQTYLKSKESMTDAILQTDQTLTEKEKEIEVERVKAESAQASAKMLQEMQRKNEQMMEQKERSYQEHLKQLTEKMENDRVQLLKEQERTLALKLQEQEQLLKEGFQKESRIMKNEIQDLQTKMRRRKACTIS
modifications: farnesyl moiety, C-terminal (CaaX box motif)
B3: GBP1 D199K, non-farnesylated (natural protein)
chain: MASEIHMTGPMCLIENTNGRLMANPEALKILSAITQPMVVVAIVGLYRTGKSYLMNKLAGKKKGFSLGSTVQSHTKGIWMWCVPHPKKPGHILVLLDTEGLGDVEKGDNQNDSWIFALAVLLSSTFVYNSIGTINQQAMDQLYYVTELTHRIRSKSSPDENENEVEDSADFVSFFPDFVWTLRDFSLDLEADGQPLTPKEYLTYSLKLKKGTSQKDETFNLPRLCIRKFFPKKKCFVFDRPVHRRKLAQLEKLQDEELDPEFVQQVADFCSYIFSNSKTKTLSGGIQVNGPRLESLVLTYVNAISSGDLPCMENAVLALAQIENSAAVQKAIAHYEQQMGQKVQLPTETLQELLDLHRDSEREAIEVFIRSSFKDVDHLFQKELAAQLEKKRDDFCKQNQEASSDRCSALLQVIFSPLEEEVKAGIYSKPGGYRLFVQKLQDLKKKYYEEPRKGIQAEEILQTYLKSKESMTDAILQTDQTLTEKEKEIEVERVKAESAQASAKMLQEMQRKNEQMMEQKERSYQEHLKQLTEKMENDRVQLLKEQERTLALKLQEQEQLLKEGFQKESRIMKNEIQDLQTKMRRRKACTIS
B4: GBP1 D199K, farnesylated (natural protein)
chain: B3 chain
modifications: farnesyl moiety, C-terminal (CaaX box motif)
B5: GBP1 D199A, non-farnesylated (natural protein)
chain: B3 chain with K199A
B6: GBP1 D199A, farnesylated (natural protein)
chain: B3 chain with K199A
modifications: farnesyl moiety, C-terminal (CaaX box motif)

Tests used:
[1] = target: the molecule itself; test: light scattering-based polymerization assay
cross-linking = target: the molecule itself; test: cross-linking

Protein	binding result [1]	binding result (cross-linking)
B1	binds	–
B2	binds	–
B3	–	binds
B4	–	binds
B5	–	binds
B6	–	binds
